Measured values from the supplement of paper PMC12667976.

B1: library; numbered along this chain (parent)
chain: MATDAALRRLLRLHRTEIAVAVDSAFPLLHALADHDVVPEDKFQETLHLKEKEGCPQAFHALLSWLLTQDSTAILDFWRVLFKDYNLERYGRLQPILDSFPKDVDLSQPRKGRKPPAVPKALVPPPRLPTKRKASEEARAAAPAALTPRGTASPGSQLKAKPPKKPESSAEQQRLPLGNGIQTMSASVQRAVAMSSGDVPGARGAVEGILIQQVFESGGSKKCIQVGGEFYTPSKFEDSGSGKNKARSSSGPKPLVRAKGAQGAAPGGGEARLGQQGSVPAPLALPSDPQLHQKNEDECAVCRDGGELICCDGCPRAFHLACLSPPLREIPSGTWRCSSCLQATVQEVQPRAEEPRPQEPPVETPLPPGLRSAGEEVRGPPGEPLAGMDTTLVYKHLPAPPSAAPLPGLDSSALHPLLCVGPEGQQNLAPGARCGVCGDGTDVLRCTHCAAAFHWRCHFPAGTSRPGTGLRCRSCSGDVTPAPVEGVLAPSPARLAPGPAKDDTASHEPALHRDDLESLLSEHTFDGILQWAIQSMARPAAPFPS

Variants of: B1
Experiment: AIRE transcriptional activation functional score (insulin promoter-GFP; nonsense median 0, synonymous median 1) (normalised score); higher = higher AIRE activity (more reporter activation)
Details: with insulin promoter-GFP reporter in HEK293
Experimental: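 Deep mutational scan of full-length human AIRE (codon-optimized cDNA, DT-POPCode NNN libraries over three regions) integrated at a Bxb1 landing pad in HEK293 cells carrying an insulin core promoter-GFP reporter at a Flp-In site. Cells were sorted for the top 10% GFP about 14 days after transfection. Variant frequency log-ratios (select vs non-select, TileSeq) were rescaled so that the nonsense median is 0 and the synonymous median is 1, then averaged over biological replicates.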

AIRE transcriptional activation functional score, by site and new letter:
D105: E 0.837; T 0.553; G 0.621; R 0.481; F 0.419; Y 1.72; C 0.824; K 0.591; L 0.724; S -0.0361; Q -0.785; N 0.431; A 1.52; V 0.6; H 0.701
F100: W 1.58; A 0.229; R -0.588; K 0.809; H 0.644; C 0.447; G -0.223; P 1.03; T -2.46; Q 1.26; I 0.0995; Y -0.017; E -0.0797; N 1.13; S 0.172; L 0.191; M -0.57; D -0.111; V -0.124
R92: Q 0.461; G 0.724; Y -0.675; S 0.275; H 0.298; E -0.432; V -0.0193; L -0.166; A -0.0922; W 0.13; I -0.385; F 0.28; P -0.2; D 0.169; T -0.129; C 0.489
E88: A 1.18; D 0.357; I 0.434; L 0.861; V 0.181; S 0.402; R 2.71; F 0.0961; M 0.132; K 0.437; C 0.444; W 0.779; T 1.95; G -0.0199; Q 1.91
Y90: T 0.376; D 0.18; G -0.388; Q -0.537; R 0.13; C 0.198; I -0.0337; F 0.00136; E -0.843; V 0.153; W -0.215; H 0.364; S -0.169; K -0.475; P 0.0423; A 0.366; L 0.0613; M 0.613; N 0.194
V104: F 1.15; S -0.0986; Q 1.13; I 0.904; K -0.552; P 0.45; E 0.823; A -0.013; L 0.894; T 0.284; R 0.389; C 0.343; D -0.387; N -0.244; G -0.0739; Y 0.986; H -0.483
R89: V -3.54; A 0.812; Q 0.475; F 1.93; P -1.08; M -2.04; C 0.253; G 0.255; L -0.165; H 0.994; W 0.927; S 1.8
L97: Y 2.69; M 0.762; H 2.81; T -0.118; E -2.05; A -0.272; I -0.239; F 1.29; V 0.394; S -0.186; G -0.102; R 0.805; N -0.0633; P 0.384; D 0.828; Q -0.412; W -1.69; C 0.164
S99: A -0.293; E 0.0893; D 0.205; K 1.65; F 0.636; G 0.382; I 0.822; L 0.541; M 1.07; H 0.569; R 0.357; P 1.51; Y -0.311; W -0.319; C 1.07; Q -0.179; V 0.813; N 0.889
P95: R 0.995; Y 1.97; G 1.01; L 1.38; H 0.425; D 0.444; S 0.715; C 0.979; E 0.792; W 0.55; M 1.41; Q 1.61; T 1.34; F 1.19; A 1.12; N 1.56; K 0.336; V 1.12; I 0.95
G91: S 1.19; W 1.54; L 0.236; D -0.369; P 0.488; R 1.22; V 0.766; H -0.774; Y 2.5; A 0.266; T 0.431; M 1.02; K -0.415; I -0.00302; C -0.103; F 0.132; E 1.71
I96: R 0.0358; Y 0.139; V 1.14; P -0.0986; S -0.438; C -0.194; D -0.0149; N 0.24; G -0.689; Q -1.73; W -0.358; K 0.201; L 0.547; F 0.253; E 0.112; T -1.01; M -0.371; A -0.165; H 1.08
L106: D 0.107; A -0.169; E 0.17; C -0.159; F 0.883
Q94: C -0.262; P 0.0425; L 0.662; R 1.65; H 0.885; F 0.133; K 1.21; M 1.89; W 1.53; D 0.228; G 0.865; V 1.42; A 1.44; I 1.17; S 0.266; Y 0.209; N -0.193; T 0.511; E 0.0511
D98: E 0.0399; R 0.621; H 1.3; A 0.771; N 0.841; Y 0.0432; T -0.235; C 0.078; L 0.703; P 0.632; V 0.341; F 0.239; M 1.55; G -0.489; K -0.443; W -0.885; S 0.163; I 0.501; Q 2.07
D103: C 1.14; P -0.105; H 0.857; F 0.826; Y 0.675; G 1.32; R 0.339; S 1.85; W 0.822; M -0.761; K 0.633; E 1.66; N 0.59; L 0.32; A 0.291; Q 0.412; T 0.146; I 0.368; V 0.319
L87: Y -0.162; P 0.0832; N 0.531; S 0.0056; F -0.159; W -0.816; E 1.49; V 0.869; R 1.14; G 0.476; H -0.266; D 0.374; T 0.00113; I 1.66; Q 0.462
L93: Y -0.417; H -0.023; N 0.43; F 0.229; M -0.0479; R 0.0258; G -0.0131; A 0.124; C -0.0574; K -0.329; V 0.0157; T -0.0548; P 0.0133; S -0.0816; D -0.0637; I 0.258; W 0.0522; Q -0.189; E 0.401
P101: Y 0.166; F -0.111; S -0.303; L 0.222; I -0.0207; D 0.335; G 0.302; N 0.226; V -1.95; M 0.0755; W -5.52; R 0.861; T -0.239; A 0.415; H 1.17
K102: A -0.872; T 1.28; G 0.563; V 0.889; N 1.44; C 0.948; R 2.19; D 0.758; P -1.25; Y 1.3; M 0.607; I 1.56; S 0.749; H -1.63; F 1.34; Q 2.65; E 1.25; L 0.643; W 1.77
